Measured values taken from patent publication US7799901B2, “Modulators of the function of FAS receptors and other proteins” (Yeda Research and Development Co. Ltd., priority 1995, dated 2010).

Columns and labels:
[1] = biological target: CED3/ICE homology region in MACHα1 (Homo sapiens, UniProt Q14790); conditions: 5 mM; bacterial extracts; listed as iodacetic acid
[2] = test system: GST-Fas-IC fusion protein; assay: In vitro binding to GST-Fas-IC on glutathione beads; design: species or system human or mouse; conditions: [35S]-labeled protein from HeLa extracts; SDS-PAGE, autoradiography
Method: Glutathione S-transferase (GST) fusions with the wild type or a mutated Fas-IC were produced and adsorbed to glutathione-agarose beads; see Boldin et al, 1995; Ausubel et al, 1994; Frangioni and Neel, 1993). Binding of metabolically-labeled FLAG-MORT-1 fusion protein to GST-Fas-IC was assessed by incubating the beads for 2 h at 4° C. with extracts of HeLa cells, metabolically labeled with [^35S]methionine (60 μCi/ml), that express FLAG-MORT-1. The extracts were prepared in a buffer containing 50 mM Tris-HCl, pH 7.5, 150 mM NaCl, 0.1% NP-40; 1 mM dithioteitol, 1 mM EDTA, 1 mM phenylmethylsulfonyl fluoride, 20 μg/ml Aprotonin, […] Leupeptin, 10 mM-sodium fluoride and 0.1 mM sodium vanadate (1 ml per 5×10^5 cells).
Expression of MORT-1 molecules fused at their N terminus with the. FLAG octapeptide (FLAG-MORT-1) yielded in HeLa cells proteins of four distinct sizes—about […], 28, 32, and 34 kD. […] Thus, the in vitro interaction was evaluated by assessing, by autoradiography following SDS-PAGE, the binding of [35] metabolically labeled MORT-1, produced in transfected HeLa cells as a fusion with the FLAG octapeptide (FLAG-MORT-1), to GST, GST fusion with the human or mouse Fas-IC (GST-huFas-IC, GST-mFas-IC) or to GST fusion with Fas-IC containing a Ile to Ala replacement mutation at position 225.

[3] = biological target: T1, intracellular domain of FAS-R (Homo sapiens, UniProt P25445); assay: Cross immunoprecipitation with co-expressed FAS-R in HeLa cells; type: binding
T1 construct: expressed in transfected cells; host or cells: HeLa HtTA-1
T1 sequence (P25445 26-335): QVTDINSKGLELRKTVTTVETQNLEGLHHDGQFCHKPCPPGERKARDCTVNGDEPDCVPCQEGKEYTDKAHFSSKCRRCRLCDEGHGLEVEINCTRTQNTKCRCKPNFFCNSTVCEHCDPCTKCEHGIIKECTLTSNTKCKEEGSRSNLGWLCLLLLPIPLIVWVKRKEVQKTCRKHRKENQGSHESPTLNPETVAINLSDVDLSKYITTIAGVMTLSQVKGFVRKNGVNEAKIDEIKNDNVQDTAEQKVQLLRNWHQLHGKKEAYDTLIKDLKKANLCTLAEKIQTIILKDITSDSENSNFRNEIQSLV
Method: (§1) MORT-1, N-linked to the FLAG octapeptide, (FLAG-MORT-1; Eastman Kodak, New Haven, Conn., USA), Fas-IC, FAS-R, p55-R, a chimera comprised of the extracellular domain of p55-R (amino acids 1-168) fused to the transmembrane and intracellular domain of FAS-R (amino acids 153-319), and the luciferase cDNA which serves as a control, were expressed in HeLa cells. Expression was carried out using a tetracycline-controlled expression vector, in a HeLa cell clone (HtTA-1) that expresses a tetracycline-controlled transactivator (Gossen and Bujard, 1992; see also Boldin et al, 1995). Metabolic labeling with [^35S]methionine and [^35S] cysteine (DUPONT, Wilmington, Del., USA and Amersham, Buckinghamshire, England) was performed 18 hours after transfection, by a further 4 h incubation at 37° C. in Dulbecco's modified Eagle's medium lacking methionine and cysteine, but supplemented with 2% dialyzed fetal calf serum. The cells were then lysed in RIPA buffer (10 mM Tris-HCl, pH 7.5, 150 mM NaCl, 1 NP-40, 1% deoxycholate, 0.1% SDS and 1 mM EDTA) and the lysate was precleared by incubation with irrelevant rabbit antiserum (3 μl/ml) and Protein G Sepharose beads (Pharmacia, Uppsala, Sweden; 60 μl/ml). […]

[4] = biological target: T2, FAS-R-p55-R chimera (p55-FAS) (Homo sapiens, UniProt P19438+P25445); assay: Cross immunoprecipitation with co-expressed p55-FAS chimera in HeLa cells; type: binding
T2 construct: transmembrane and intracellular domain of FAS-R (amino acids 153-319); expressed in transfected cells; host or cells: HeLa HtTA-1
T2 sequence (P19438+P25445 with tags, fused parts or gaps): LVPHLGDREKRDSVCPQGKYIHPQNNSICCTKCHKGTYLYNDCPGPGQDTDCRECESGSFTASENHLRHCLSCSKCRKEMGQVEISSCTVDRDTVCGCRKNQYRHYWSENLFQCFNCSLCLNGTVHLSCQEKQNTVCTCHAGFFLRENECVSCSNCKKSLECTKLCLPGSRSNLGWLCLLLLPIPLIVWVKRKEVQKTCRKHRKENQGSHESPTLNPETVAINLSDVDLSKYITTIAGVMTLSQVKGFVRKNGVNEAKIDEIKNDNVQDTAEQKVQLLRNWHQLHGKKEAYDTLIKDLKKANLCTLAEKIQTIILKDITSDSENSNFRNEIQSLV
Method: as §1

Chain of CED3/ICE homology region in MACHα1 (Q14790 217-479): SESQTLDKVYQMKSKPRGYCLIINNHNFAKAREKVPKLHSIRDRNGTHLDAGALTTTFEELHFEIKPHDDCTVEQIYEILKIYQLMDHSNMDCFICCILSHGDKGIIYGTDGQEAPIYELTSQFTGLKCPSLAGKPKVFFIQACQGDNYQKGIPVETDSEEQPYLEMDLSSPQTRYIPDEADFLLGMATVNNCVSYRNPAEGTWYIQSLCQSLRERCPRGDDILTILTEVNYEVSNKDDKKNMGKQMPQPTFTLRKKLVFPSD

O=C(O)CI [iodoacetic acid]
effect on cleavage of Ac-DEVD-AMC by the MACHα1 CED3/ICE homology region [1]: blocked

B1: FLAG-MORT-1: MORT-1, N-linked to the FLAG octapeptide (protein)
chain: VNQAPECRFGGGILGPLGKRRDLARASEPRTEGARRAGPQPRPLADPAMDPFLVLLHSVSSSLSSSELTELKFLCLGRVVKRKLERVQSGLDLFSMLLEQNDLEPGHTELLRELLASLRRHDLLRRVDDFEAGAAAGAAPGEEDLCAAFNVICDNVGKDWRRLARQLKVSDTKIDSIEDRYPRNLTERVRESLRIWKNTEKENATVAHLVGALRSCQMNLVADLVQEVQQARDLQNRSGAMSPMSWNSDASTSEAS
modifications: left off: small tags and cut ends
notes: MORT-1, N-linked to the FLAG octapeptide
in vitro binding to GST-Fas-IC [2]: showed ability to bind
binding to intracellular domain of FAS-R when co-expressed in HeLa cells [3]: capable of binding
binding to intracellular domain of FAS-R-p55-R chimera when co-expressed in HeLa cells [4]: capable of binding
